Test results from the DeepSol protein solubility set.

Experiment: soluble on expression in E. coli; label from the status in PepcDB or PDB records

Row | Sequence | soluble on expression in E. coli
1 | MNLAKRILQGEQLTKETVLKIYEDTNIDTLDLLNEAYILRKHYFGKKVKLNMILNAKSGICPENCGYCGQSRDIKQKQRYALIPEEQIIDGAKVAHDNHIGTYCIVMSGRGPSDKEVDHISNTVRTIKSQHPQLKICACLGLTNDEQAKKLKSAGVDRYNHNINTSENYHDNVVTTHSYKDRTDTIELMKANNISPCSGVICGMGESNQDIVDMAFALKEMDADSIPINFLHPIKGTKFGSMDDLTPMKCLRIVALFRLINPTKEIRIAGGREVNLRSLQPLALKAANSIFVGDYLITGGQPNQLDYDMINDLGFEIDYDTCENKENKNDVSRAN | not soluble
2 | MFPYYQRQCPTGSVPYTIKAGDTLAAIARIYGTTVQDIINANPDIDPYYLRVGQQICIPLTMQIYPSCPTTNYYVVRPEDTLESIAAYFNITPQQLLYSNYGIDPTDLYVDQILCIPVAPPPVTVNVNVAERTLTVYRDGRIYRTYRIALENPASPIPRGTFTVLNKQVDPGVEMGARWIGLSEAGFGIHGTNTPEFIDVVSTGNSIVMSNEDVSELFNLVPVGTIVTIS | soluble
3 | MSLSDNDLQRRILDAVDAGFDAQLATTRDFVAIPSTRGAEGPCQDMIGDLLRQRGYEVDDWHIDLDDLKDLRGYGPIEHDFSKARTVVGTYRPSTNAGRSLILQGHCDVVPAGPLEMWDTPPFSPVIKQGRMYGRGACDMKSGTIGALYALDAIKAAGLRPTGRIHFQSVIEEESTGVGALSTLQRGYRADACFIPEPTGGKMVRSQVGVIWFRLKVRGYPVHVATAGTGSNAITAAYHLIDALGKLEEEWNRRAASDPHFKTLAHPINFNPGIIKGGDWASSVPAWCDVDCRIAILPGWSVADHQAEILACVSAAARDHRFLSNNPPQVEWSGFLSEGYELKNAAEPEAAFGKAYQAVYGSEVEDLVFTALTDTRFYGLNYNIPSLCFGASGEAMHGFNEYIDLESLRQSTKATALFIAEWCGVEPAEGHHHHHH | soluble
4 | MIKLIATIIVSTLILGSCSTMKDEIEKVPASQYKGQDFQPLAEKSAIAHAKKYREEYEKLGEQFFKDNFSLNVKATNVVGSGDGAEVYVHCDDHDIVFNASIPFDMESIHEEGSMRSNDNGDTMSMMVGTVLSGFEYRANKEKMDNLEKYLKDKEDKYHYTGFTDEAITKTQNIGYQNNYFYITTSSTKLRDYRKHFEPLIKESDDDFKKHMKQLKSKKDTYINTEITTTLFSTLDEYDEKIIRKNTLSMAKEMRKEPSIPHNFTFHLLFSNNKLKINDPNISNNQINEYRVFDHDGFKNLEHHHHHH | not soluble
5 | MGSDKIHHHHHHMNVAILLAAGKGERMSENVPKQFLEIEGRMLFEYPLSTFLKSEAIDGVVIVTRREWFEVVEKRVFHEKVLGIVEGGDTRSQSVRSALEFLEKFSPSYVLVHDSARPFLRKKHVSEVLRRARETGAATLALKNSDALVRVENDRIEYIPRKGVYRILTPQAFSYEILKKAHENGGEWADDTEPVQKLGVKIALVEGDPLCFKVTFKEDLELARIIAREWERIP | soluble
6 | MDIYERQVRVEAPLAEVWKFHATGDGLVALTPDWMNIRIEAERGPDGEPNPDELTAGSVVESSIKPFGVPPRQQWVSNIVAREEGEDEAMFRDVMEEGPFPHWEHTHTFRALSDRETLVHDHVEFELPGGPLGRALGPFGCLGMEPMFRYRHQQTKKLLEGLEHHHHHH | not soluble
7 | MLTDGSYFHLHLVSDSTGETLITVSRAVTAQYANVTPVEHVYPLVRSQKQLDRVLQEIEEAPGIVLFTLLETELVNRLEAKCQEINSPSLSIIGPVMQLFEAYLGASTMGRVGAQHTLNAEYFQRIDALNYSMMHDDGQHVEGLEEADVVLVGVSRTSKTPTSIYLANRGIRTANVPLVAGIPIPHQLETLKKPLVVSLHASPERLIQVRQNRLLSLGAGSGNDSYIDRQAVTDEVLLARKLSAKYGWSLLDVTRRSIEETAAAIMKLLADRQRQRVPELEHHHHHH | not soluble
8 | MPIRAARASLRRMDSDFLIIGGGIAGVSAAARLSELGSVTLLEAEDALAHHASSRSAALYEPRYGLPPVVELSLASGDFFRAADGILSPRGLLVVGREAEREQFEDETVGMHLERISAEEARAAVPILRPDVTLAARADHAWDIDTDRLLQGFAREARARGARIVTKARVGAIARDGAGWRVEAGESYRARILVNAAGAWADGVAALSGVRPLGLVPYRRSMARIPAPGGHDISRWPMIFGVGESWYAKPDAGALIVSPADEDPQEPHDAWADDMVLAEGLARYEEMVTEPVTRLLASWAGLRTFAPDRVLVIGEDPAAPGFFWLAGQGGYGFQTCPAASRLAADLIGGRSPEVPAALIAALSPDRFALEHHHHHH | not soluble
9 | SNAMNDIVASTQLPNTIKTITNDLRKLGLKKGMTVIVHSSLSSIGWISGGAVAVVEALMEVITEEGTIIMPTQSSDLSDPKHWSRPPVPEEWWQIIRDNVPAFEPHITPTRAMGKVVECFRTYPNVVRSNHPLGSFAAWGRHAEEITVNQSLSMSLGEESPLRKIYDLDGYILLIGVGYDSNTSVALSEVRSGACELIKVGAPIIENGERVWKEFVDMDYDSDKFVEIGVEFEQKGTVTMGKIGNAKCRLMKQRDIVDFGTEWFRKKN | soluble
10 | MIPVILSGGSGSRLWPLSRKQYPKQFLALTGDDTLFQQTIKRLAFDGMQAPLLVCNKEHRFIVQEQLEAQNLASQAILLEPFGRNTAPAVAIAAMKLVAEGRDELLLILPADHVIEDQRAFQQALALATNAAEKGEMVLFGIPASRPETGYGYIRASADAQLPEGVSRVQSFVEKPDEARAREFVAAGGYYWNSGMFLFRASRYLEELKKHDADIYDTCLLALERSQHDGDLVNIDAATFECCPDNSIDYAVMEKTSRACVVPLSAGWNDVGSWSSIWDVHAKDANGNVTKGDVLVHDSHNCLVHGNGKLVSVIGLEDIVVVETKDAMMIAHKDRVQDVKHVVKDLDAQGRSETQNHCEVYRPWGSYDSVDMGGRFQVKHITVKPGARLSLQMHHHRAEHWIVVSGTAQVTCDDKTFLLTENQSTYIPIASVHRLANPGKIPLEIIEVQSGSYLGEDDIERLEDVYGRTAEPALQVVAGSR | not soluble
11 | MTGNSFNSMKDFLKQTGGYAVIDGGLATEFERHGADLNDPLWSAKCLVTSPHLIHTVHLDYLEAGADIISSASYQATIQGFEAKGFSREESESLLKKSVEIATEARNSYYDKCGTSSSMDDKILKKRPILVAASVGSYGAYLADGSEYSGIYGDSITLEKLKDFHRRRLQVLAESGADLIAFETIPNKIEAQAFADLLEEGDVKIPGWFSFNSKDGVNVVSGDSIKECISIAENCEKVVAVGINCTPPRFIEGLVLEIEKVTSKPILVYPNSGESYDADRKEWVENTGVGDEDFVSYVEKWMDAGVSLLGGCCRTTPTTIRAIHKRLVNRRSL | soluble
12 | MAHHHHHHMVGARFFFLNLPTSLSSASSLNRNKITSNRLPTDPSTPQWRDGYKLRKAVDDSSTQSTHRLPIYFCNAQRRVSSHSGRKTLLLATICIYDVGALDSFPIVLLVPLLNFIKSGLNEVDGSADCVDFSEYQCLTAPFPTTFRISLCPRLRFGGQFFFFCTHSRGDKNSRSILSHQRLAKFVPLFHTWYNEQDIS | not soluble
13 | MINLQDVSKVYKSKHGDVNAVQNVSLSIKKGEIFGIIGYSGAGKSSLIRLLNGLEKPTSGTVEVAGTKINEVNGRGLRKARHEISMIFQHFNLLWSRTVRDNIMFPLEIAGVKKSERIKRANELIKLVGLEGKEKSYPSQLSGGQKQRVGIARALANNPKVLLCDEATSALDPQTTDSILDLLSDINERLGLTIVLITHEMHVIRKICNRVAVMENGKVVEEGEVLDVFKNPKEQMTKRFVQQVTEPEETKETLQHLLDDTASGKMVQLTFVGESAEQPLITEMIRNFNVSVNILQGKISQTKDGAYGSLFIHIDGDEEEVQNVIRFINDKQVKAEVITNV | not soluble
14 | KGYDSHKIALAQSETEMRNLSHSLAEHATHTFQGADVVLDDIVSFMKWRPHPSPVFNERLRALADNLPQLSDVAILDADGQLTYASVKPVPALDNSDRSYFRYHRANDDHTLLITGPIQSRTSGVWVFVVSRRLETTDGKFFGVVVATIESEYFSTFYKTFDLGPGGSISLLHSDGRLLIQWPSLQTGRDMANMVLFQKALPRSPDGYYLTVSPFDGLTKYLAYRRVSRYPLVVTVARTEDSVLSGWREAVRSD | soluble
15 | MDYKVSRSGEIVEGEVEDSEKIDLPPGFRFHPTDEELITHYLRPKVVNSFFSAIAIGEVDLNKVEPWDLPWKAKLGEKEWYFFCVRDRKYPTGLRTNRATKAGYWKATGKDKEIFKGKSLVGMKKTLVFYKGRAPKGVKTNWVMHEYRLEGKFAIDNLSKTAKNECVISRVFHTRTDGTKEHMSVGLPPLMDSSPYLKSRGQDSLAGTTLGGLLSHVTYFSDQTTDDKSLVADFKTTMFGSGSTNFLPNIGSLLDFDPLFLQNNSSVLKMLLDNEETQFKKNLHNSGSSESELTASSWQGHNSYGSTGPVNLDCVWKF | soluble
16 | SEENEEEEELRPTALYTVGGSDEFTFVSPDGLSGQYTGPDHDGVVLQTENPAPTNCLAYYFEVHIMNAGEKGEIAIGFSKEHIYSEGYTVRSCAYIGNSGLICSQNGDGDRTVAKASDTYTTGDLVGCGIDSVSQEFFFTKNGTIVGTIPRQFRRPVYPTIVLHSQNEAVTVNFGGQIAFSFDFEVRSYFSFLA | soluble
17 | MQRTLGEIMKIYFATGNPNKIKEANIILKDLKDVEIEQIKISYPEIQGTLEEVAEFGAKWVYNILKKPVIVEDSGFFVEALNGFPGTYSKFVQETIGNEGILKLLEGKDNRNAYFKTVIGYCDENGVRLFKGIVKGRVSEEIRSKGYGFAYDSIFIPEEEERTFAEMTTEEKSQISHRKKAFEEFKKFLLDRI | soluble
18 | MGNNQSGGPDARYGGPNDKAGLRRHRMMSETAKIAGQVLPNPDGGPPMIFDDGNEDKSGECPVVFRWSFTQNAQPRVVHIVGSWDNWQTRIPMVKSTNDFSTIIDLQPGQYEYKFQVDGSWVVDDNQGKAQDVHGNENNMINIQDSDFAVFEALDEDFQSSTAGEVLRGESESTKNHDTPNDRELEKLRSFTQEIPSMDMLRKAAGPPVIPPQLMQVLLNKETPESCDPNVLPEPNHVMLNHMYALSIKDSVMVLSSTQRYRKKFVTTLLYKPV | not soluble
19 | MSLAAGFAPLADIPVGPDYVIGPGDRIILNLWGSAEGTHELEVNRSGEIVLPRVGSVKVWGITFERLPEVLKTHLSKIYKNFDLNVTMGKLRVIKVYVVGEVKMPGDYNLSPLSTLINALAASGGPLKTGTLRNIKIKRGGKVVETVDLYDFFLKGDKGKDIRLQPGDTIFVPVIGRVAGIAGNVKRPAIYELKDEKNLGDLVELAEGFLPTGYLQRVQITRVDAHDKRMVADFNIDPKGAGEGHHHHHH | not soluble
20 | MKLSEIYNFLDQLSPFNIQESWDNSGILLGDRDSEISTVYLSLDIDENIIKEASENSLIITHHPLIFKGLKDLYDKTYPRAFIKEMIYKNISLISMHTNYDLSHLNTYFTEEILGFKISFKDKFLIYVENSMSFEALCDWVKKKLNLQILRVSDCGKKDIKRIAICTGSGGDLISKVDADCFLSGDFKYHQALEALSNQISLIDLGHFESERYFSQCLAKDLKNLPLQVIITVSKNPFQYFLEHHHHHH | soluble
21 | MGSSHHHHHHMQPEHVKERYKNFLNQHVGPDMSVQRCNSEIGPNNRKITLSGTDNGCKPVNTFILANKRLIKTVCGRAGSPQGNMVRSNQPFPVVKCVLNNGERHPYCEYRGTRSTRYIVLKCEEGWPVHYHEDEVNVG | soluble
22 | MGSDKIHHHHHHMSLSRNSDLHMHSTASDGGYSPTELMEKCHQANLKFVALTDHDTVNGIEEAKQTAHRLGFILIPGIELSTKASGQSVHMLGYGIDWKNDTLKRRLDRQQDIRKQRLEQILLKLKAAGVPLEQDAVLRYADGGAIGRPHVAKALMDKGYVRSVQEAFEHYLAEGRPCYVKRQEYISVEQAIAWIHQAGGVAIVAHPGYYDLDDQLIGWVREYGLDGIEVYHRDHSREVVAHYEQLCKRMEAETGRRLLRTGGSDFHHESYGRTAAPLGTTRIPDQLTYELLHDLERKKTRA | not soluble
